Measured values published in US12091454B2, “Humanized anti-human neurotensin receptor 1 antibodies and their uses” (DEVELOPMENT CENTER FOR BIOTECHNOLOGY, priority 2022, dated 2024).
Numbering of substitutions follows the chain as printed. “And” between values parts separate entries of the source, which are not always exact repeats. Equal values may be shown once. Values belong to the molecule of their own block, whether it stands above or below them.

What was measured:
[1] = test system: NTSR1 linear L2-biotin protein; experiment: Binding affinity of the humanized antibodies by ELISA; design: species or system human; conditions: for binding signal for NTSR1 in binding ELISA: FIG. 4; for Kd: binding ELISA, non-linear regression
Protocol: ELISA plates were coated with 1-2 μg/100 μL per well of NTSR1 linear L2-biotin protein. Wells were rinsed for 3 times with PBS and blocked with 300 μL of 5% MPBS per well for 2 hr at 37° C. After washing with PBS, wells were incubated with serial diluted NTSR1 antibodies in 5% MPBS for 1.5 hours at 37° C. The plates were washed and goat polyclonal anti-human IgG-HRP antibody (1:10,000) (JACKSON IMMUNORESEARCH®) was added into each well. The OD at 650 nm and at 450 nm was read. Readings were obtained by subtracting OD650 from OD450 and the binding affinities of antibodies were calculated by non-linear regression with Prism software (GRAPHPAD®).

[2] = test system: NTSR1 expressing cells, FaDu; experiment: Cell-binding assay by FACS; design: species or system human
Protocol: Anti-NTSR1 antibodies were used to detect cells that express NTSR1 on the cell surfaces, for example using FACS. NTSR1 expressing cells, FaDu, were harvested and re-suspended in 5% PBS/FBS buffer. The cells (1×10^5) were incubated with anti-NTSR1 antibody (1-10 μg/ml) or negative control, at 4° C. for 1 hr, and then stained with goat anti-human IgG FITC conjugate ( 1/1000) at 4° C. for 1 hr. For each assay, two additional controls were prepared; one without primary antibody and the other one with absence of any antibody. All treated samples were analyzed with FACSVERSE™ (BECTON DICKINSON®) and the results were processed by FACSUITE™ software (BECTON DICKINSON®).

NTSR1 protein = NTSR1 protein (Homo sapiens, UniProt P30989); experiment: SPR (BIACORE T200) multi-cycle kinetic assay; conditions: 25° C., one-to-one Langmuir binding model
Protocol: To know the binding kinetics differences among individual anti-NTSR1 antibodies, surface plasmon resonance (SPR) measurement with BIACORE™ T200 (CYTIVA® Inc.) was used as previously described (Karlsson & Falt, (1997) J. Immunol Methods 200:121-133). Carboxymethylated dextran biosensor chips (CM5, CYTIVA® Inc.) were activated with N-ethyl-N′-(3-dimethylaminopropyl)-carbodiimide hydrochloride (EDC) and N-hydroxysuccinimide (NHS) according to the supplier's instructions. NTSR1 protein was diluted with 10 mM sodium acetate, pH 4.0, into 5 μg/ml before injection at a flow rate of 10 μL/minute to achieve approximately 1500 response units (RU) of coupled protein followed by the injection of 1 M ethanolamine to block unreacted groups. For kinetics measurements, two-fold serial dilutions of anti-NTSR1 mAb (0.3125 nM to 40 nM) were injected in HBS-EP+BIACORET™ running buffer provided by the manufacturer (CYTIVA® Inc.) at 25° C. at a flow rate of 30 μL/min, and binding responses on the NTSR1 protein were corrected by subtraction of responses on a blank flow cell. Association rates (kon or Ka) and dissociation rates (koff or Kd) were calculated using a simple one-to-one Langmuir binding model with separate fittings of kon and koff. (CYTIVA® BIACORET™ Insight Evaluation Software).

[3] = test system: FaDu human head and neck cancer xenograft; experiment: Xenograft model of anti-NTSR1 ADCs (head and neck cancer); type: in vivo, male NOD SCID mice; conditions: 5 mpk, IV, BIW × 3
Protocol: The aim of this study was to evaluate the in vivo anti-tumor efficacy of αNTSR1 (AKT2) 4seco-DUBA, αNTSR1 (AKT2 Hu/Hu) 4seco-DUBA, and αNTSR1 (AKT2 Hu/Hd) 4seco-DUBA in FaDu human head and neck cancer xenograft model in male NOD SCID mice.
Formulations respectively comprising test article αNTSR1 (AKT2) 4seco-DUBA, test article αNTSR1 (AKT2 Hu/Hu) 4seco-DUBA, test article αNTSR1 (AKT2 Hu/Hd) 4seco-DUBA, and Hu IgG were formulated by diluting the stock with a 25 mM sodium citrate buffer (pH 6.5). […]
The FaDu cells were maintained in vitro as a monolayer culture in RPMI-1640 medium supplemented with 10% fetal bovine serum at 37° C. in an atmosphere of 5% CO2 in air. The tumor cells were routinely sub-cultured twice weekly by trypsin-EDTA treatment. The cells growing in an exponential growth phase were harvested and counted for tumor inoculation.
Male NOD SCID mice at age of 6-7 weeks were quarantined for one week. Five mice were housed in each cage. All animals were hosted in the animal facility with a 12-h light/12-h dark cycle at 19-25° C. Animals had free access to rodent pellet foods and water ad libitum.
FaDu cells were subcutaneously (SC) implanted (4×10^6 cells in 1:1 PBS/matrigel mixture at 0.1 mL per mouse) into the right flank of male NOD SCID mice. When the average tumor volume had reached about 200 mm^3, the mice were randomly divided into 7 groups (N=6 per group). Each of Hu IgG, αNTSR1 (AKT2) 4seco-DUBA (5 mg/kg), αNTSR1 (AKT2 Hu/Hu) 4seco-DUBA (5 mg/kg), and αNTSR1 (AKT2 Hu/Hd) 4seco-DUBA (5 mg/kg) was intravenously administered twice weekly for 3 weeks.
The tumor volumes, body weights, mortality, and signs of overt toxicity were monitored and recorded three times weekly for 28 days. Tumor volumes (mm^3) were measured three times per week using calipers and calculated according to the formula: Tumor Volume=(w^2×l)/2, where w=width and l=length in diameter (mm) of the tumor. The percentages of tumor growth inhibition (TGI) were calculated using the following formula: % TGI=[1−(T/C)]×100%, where T and C represent the mean tumor volumes of the treatment group and the control group, respectively. A TGI (%) value≥58% was considered as indicating significant anti-tumor activity. Animals were weighed three times weekly until the completion of the study.

[4] = In vivo pharmacokinetic analysis (MSD ECL total antibody assay); conditions: BALB/c mice, 5 mg/kg via the tail vein
Text: This Example used Meso Scale Discovery (MSD) Electrochemiluminescent (ECL) method to conduct the PK analysis of the anti-NTSR1 antibodies αNTSR1 (AKT2), αNTSR1 (AKT2 Hu/Hu) and αNTSR1 (AKT2 Hu/Hd) in BALB/c mice samples. The MSD assay can measure both conjugated and unconjugated antibodies. As illustrated in this example, for total antibody assay (including conjugated and unconjugated antibodies), the plate is coated with goat anti-human IgG, which can capture all humanized antibodies (conjugated and unconjugated).
The mice were administered at a dose level of 5 mg/kg via the tail vein. Blood samples were then obtained at different time points for determining the concentrations of αNTSR1 (AKT2), αNTSR1 (AKT2 Hu/Hu) and αNTSR1 (AKT2 Hu/Hd) in mice by MESO QuickPlex SQ 120 method. The PK parameters of αNTSR1 (AKT2), αNTSR1 (AKT2 Hu/Hu) and αNTSR1 (AKT2 Hu/Hd) were analyzed by noncompartmental analysis using PHOENIX™ for WinNonlin Program, version 6.3.

Sequence of NTSR1 protein (P30989 whole entry): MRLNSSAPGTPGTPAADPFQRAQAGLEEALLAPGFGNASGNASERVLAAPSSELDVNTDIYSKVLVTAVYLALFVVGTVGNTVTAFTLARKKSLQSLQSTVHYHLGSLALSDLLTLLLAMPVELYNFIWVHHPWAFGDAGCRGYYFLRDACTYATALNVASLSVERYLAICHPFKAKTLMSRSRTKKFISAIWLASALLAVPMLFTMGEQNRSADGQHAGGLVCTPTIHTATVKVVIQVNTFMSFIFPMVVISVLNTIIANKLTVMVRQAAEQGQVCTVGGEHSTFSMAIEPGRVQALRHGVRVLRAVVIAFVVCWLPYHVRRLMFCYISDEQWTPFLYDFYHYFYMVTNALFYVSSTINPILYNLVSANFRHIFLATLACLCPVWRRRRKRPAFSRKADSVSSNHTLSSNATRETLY

B1: 7C3 HdHd: humanized anti-NTSR1 antibody, 7C3 HdVH (SEQ ID NO: 11) and 7C3 HdVL (SEQ ID NO: 12) (antibody, V domains shown)
VH: EVQLVESGGGLVQPGGSLRLSCAASGYTFTSSWIHWVRQAPGKGLEWVAQIRPNSGNTYYNEKFKVRFTISRDDSKNTLYLQMNSLRAEDTAVYYCARYYYGFDYWGQGTLVTVSS
VL: DIQMTQSPSSLSASVGDRVTITCRSSQSIVHSNGNTYLEWYQQKPGKAPKLLIYKVSNRFSGVPSRFSGSGSGTDFTLTISSLQPEDFATYYCFQGSHLPWTFGQGTKVEIK
binding signal for NTSR1 in binding ELISA [1]: much lower binding signals

B5: AKT2: affinity-matured mouse-human chimera anti-NTSR1 antibody, AKT2 VH (SEQ ID NO: 9) and AKT2 VL (SEQ ID NO: 10) (antibody, V domains shown)
VH: QVQLQQPGSVLVRPGASVKLSCKASGYAFTSSWIHWAKQRPGQGLEWIGQIRPNSGNTYYNEKFKVKATLTVDTSSSTAYVDLSSLTSEDSAVYYCARYHYGFDYWGQGTLVTVSS
VL: DVLMTQTPLSLPVSLGDQASISCRSSQSIVHSNGNTYLEWYLQKPGQSPKLLIYKVSNRFSGVPDRFSGSGSGTDFTLKISRVEAEDLGVYYCFQGAHLPWTFGGGTKLEIK
Ka (kon, association rate) (NTSR1 protein): 406800 M⁻¹ s⁻¹ | Kd (koff, dissociation rate) (NTSR1 protein): 0.0006558 s⁻¹ | TGI % (1-T/C) Day 0 ([3]; Day 0): 0.0% | TGI % (1-T/C) Day 5 ([3]; Day 5): 11.1% | TGI % (1-T/C) Day 7 ([3]; Day 7): 34.8% | TGI % (1-T/C) Day 10 ([3]; Day 10): 31.0% | TGI % (1-T/C) Day 12 ([3]; Day 12): 31.1% | TGI % (1-T/C) Day 14 ([3]; Day 14): 29.9% | TGI % (1-T/C) Day 17 ([3]; Day 17): 21.6% | MRT ([4]; total antibody): 89.6 ± 6.6 h | Vss ([4]; total antibody): 0.159 ± 0.010 L/kg | t½ ([4]; total antibody): 71.7 ± 5.1^ h | in vivo half live ([4]; listed as αNTSR1 (AKT2), 5 mg/kg): 71.7 ± 5.1 h and 71 h

B6: 7C3 HuHu: humanized anti-NTSR1 antibody, 7C3 HuVH (SEQ ID NO: 13) and 7C3 HuVL (SEQ ID NO: 14) (antibody, V domains shown)
VH: QVQLVQSGAEVKKPGASVKVSCKASGYTFTSSWIHWVRQAPGQGLEWMGQIRPNSGNTYYNEKFKVRVTMTRDTSTSTVYMELSSLRSEDTAVYYCARYYYGFDYWGQGTLVTVSS
VL: DIVMTQTPLSLSVTPGQPASISCRSSQSIVHSNGNTYLEWYLQKPGQSPQLLIYKVSNRFSGVPDRFSGSGSGTDFTLKISRVEAEDVGVYYCFQGSHLPWTFGQGTKVEIK
binding to FaDu cells ([2]; concentration of 1 μg/mL): do not bind well | binding to FaDu cells ([2]; concentration of 10 μg/mL): do not bind significantly | binding signal for NTSR1 in binding ELISA [1]: good binding signal | Kd [1]: 0.294 nM

Further lines, with some results ahead:

binding signal for NTSR1 in binding ELISA [1]: good binding signal
B2: 7C3 HuHd: humanized anti-NTSR1 antibody, 7C3 HuVH paired with 7C3 HdVL (antibody, V domains shown)
VH: B6 VH
VL: B1 VL
binding to FaDu cells ([2]; concentration of 1 μg/mL): do not bind well | binding to FaDu cells ([2]; concentration of 10 μg/mL): do not bind significantly

binding signal for NTSR1 in binding ELISA [1]: much lower binding signals
B3: 7C3 HdHu: humanized anti-NTSR1 antibody, presumably 7C3 HdVH paired with 7C3 HuVL (antibody, V domains shown)
VH: B1 VH
VL: B6 VL

Kd [1]: 0.676 nM
B4: 7C3 MM: mouse-human chimera anti-NTSR1 antibody, m7C3 VH (SEQ ID NO: 7) and m7C3 VL (SEQ ID NO: 8) (antibody, V domains shown)
VH: B5 VH with A16D, K19M, A28T, L45P, H100Y, L111T
VL: B5 VL with A97S
binding to FaDu cells ([2]; concentration of 1 μg/mL): do not bind well | binding to FaDu cells ([2]; concentration of 10 μg/mL): do not bind significantly
